Here are results for 43 molecules from patent US20250121086A1, “LIVER-TARGETED SUBSTANCE AND USE THEREOF” (HANMI PHARM. CO., LTD., priority 2021, published 2025).

Bridge positions count the residues as written; N and C are the ends. Square brackets hold non-standard residues; d marks the D form. Ends that are not written are not given here. Aib = CC(C)(N)C(=O)O Bounds are passed on as bounds.

The test deals with human glucagon receptor (human, UniProt P47871 26-477). Kind of test: cell-based or functional assay.
human glucagon receptor, sequence (P47871 26-477): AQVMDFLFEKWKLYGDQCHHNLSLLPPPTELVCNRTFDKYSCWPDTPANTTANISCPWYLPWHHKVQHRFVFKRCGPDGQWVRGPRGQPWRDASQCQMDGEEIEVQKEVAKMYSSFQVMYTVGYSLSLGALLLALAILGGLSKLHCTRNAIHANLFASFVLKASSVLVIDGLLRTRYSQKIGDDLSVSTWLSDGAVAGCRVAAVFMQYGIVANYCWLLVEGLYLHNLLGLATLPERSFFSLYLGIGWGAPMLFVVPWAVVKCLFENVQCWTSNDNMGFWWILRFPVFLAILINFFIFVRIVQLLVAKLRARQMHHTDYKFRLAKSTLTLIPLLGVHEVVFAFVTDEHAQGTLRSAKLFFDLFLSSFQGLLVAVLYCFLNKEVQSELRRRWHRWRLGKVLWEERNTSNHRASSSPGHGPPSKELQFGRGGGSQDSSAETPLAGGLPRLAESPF
For the molecule SQGTFTSDYSKYLDECRAKEFVQWLMNT (lactam 15-19) [glucagon derivative peptide of SEQ ID NO: 32], the “In vitro activity (relative activity compared with SEQ ID NO: 1, %); cAMP EC50 in CHO cells expressing human GCG receptor” value amounted to 0.7%.
Next, YXQGTFTSDYSKYLDSRRAQDFVQWLMNT (aminoisobutyric acid (Aib) at position 2 (printed X)) [glucagon derivative peptide of SEQ ID NO: 33]: 108%.
For Y[Aib]QGTFTSDYSKYLDCKRAKEFVQWLMNT [glucagon derivative peptide of SEQ ID NO: 14] the value was 18.1%.
Next, Y[Aib]QGTFTSDYSKYLCEKRAQDFVVWLMNT [glucagon derivative peptide of SEQ ID NO: 15]: 1.1%; Y[Aib]QGTFVSDYSKYLDERRAKDFVQWLMNTC (lactam 16-20) [glucagon derivative peptide of SEQ ID NO: 40]: 40.8%; Y[Aib]QGTFVSDYSKYLDECRAKDFVQWLMNT (lactam 16-20) [glucagon derivative peptide of SEQ ID NO: 27]: 93.6%.
Regarding Y[Aib]QGTFTSDYSKYLDEKRCKEFVQWLMNT (lactam 16-20) [glucagon derivative peptide of SEQ ID NO: 22], the “In vitro activity (relative activity compared with SEQ ID NO: 1, %); cAMP EC50 in CHO cells expressing human GCG receptor” value came out at 148%.
Turning to HSQGTFTSDYSKYLDCERAQDFVQWLMNT [glucagon derivative peptide of SEQ ID NO: 3], the “In vitro activity (relative activity compared with SEQ ID NO: 1, %); cAMP EC50 in CHO cells expressing human GCG receptor” value came out at 6.1%.
With Y[Aib]QGTFTSDYSKYLDSCDAQDFVQWLINT [glucagon derivative peptide of SEQ ID NO: 8], the “In vitro activity (relative activity compared with SEQ ID NO: 1, %); cAMP EC50 in CHO cells expressing human GCG receptor” value is under 0.1%.
For W[Aib]QGTFTSDYSKYCDERRAKEFVQWLMNT (lactam 16-20) [glucagon derivative peptide of SEQ ID NO: 34] the value was 0.2%; for Y[Aib]QGTFCSDYSKYLDERRAKEFVQWLMNT (lactam 16-20) [glucagon derivative peptide of SEQ ID NO: 38], 167%.
Take HSQGTFTSDYSKYLDSCDAQDFVQWLMNT [glucagon derivative peptide of SEQ ID NO: 4]: the “In vitro activity (relative activity compared with SEQ ID NO: 1, %); cAMP EC50 in CHO cells expressing human GCG receptor” value was under 0.1%.
For Y[Aib]QGTFTSDYSCYLDEKRAKEFVQWLMNT [glucagon derivative peptide of SEQ ID NO: 45] the value was 5.2%; for Y[Aib]QGTFTSDYSKYCDEKRAKEFVQWLMNT (lactam 16-20) [glucagon derivative peptide of SEQ ID NO: 23], 76.8%; for Y[Aib]QGTFTSDYSKYLDSCDADDFVVWLINT [glucagon derivative peptide of SEQ ID NO: 10], under 0.1%.
Y[Aib]QGTFTSDYSKYLDEKCAKEFVQWLMNT [glucagon derivative peptide of SEQ ID NO: 11]: the “In vitro activity (relative activity compared with SEQ ID NO: 1, %); cAMP EC50 in CHO cells expressing human GCG receptor” value came to 4.6%.
Next, Y[Aib]QGTFTSDYSKYLDERRAKEFVQWLMNTC (lactam 16-20) [glucagon derivative peptide of SEQ ID NO: 37]: 226%; Y[Aib]QGTFTSDYSCYLDSRRAQDFVQWLMNT [glucagon derivative peptide of SEQ ID NO: 13]: 5.2%; Y[Aib]QGTFCSDYSKYLDERRAKDFVQWLMNT (lactam 16-20) [glucagon derivative peptide of SEQ ID NO: 41]: 45.2%.
For HSQGTFTSDYSKYLDCDRAQDFVQWLMNT [glucagon derivative peptide of SEQ ID NO: 2], the “In vitro activity (relative activity compared with SEQ ID NO: 1, %); cAMP EC50 in CHO cells expressing human GCG receptor” value was 0.6%.
For Y[Aib]QGTFTSDYSKYLDEKRAKCFVQWLMNT (lactam 16-20) [glucagon derivative peptide of SEQ ID NO: 25] the value was 46.9%.
As for Y[Aib]QGTFTSDYSKYLDEKCAKEFVQWLMNT (lactam 16-20) [glucagon derivative peptide of SEQ ID NO: 21], the “In vitro activity (relative activity compared with SEQ ID NO: 1, %); cAMP EC50 in CHO cells expressing human GCG receptor” value is 57.8%.
For Y[Aib]QGTFTSDYSKYLDCKRAKEFVQWLMNT (lactam 17-21) [glucagon derivative peptide of SEQ ID NO: 31] the value was 6.3%.
In the case of W[Aib]QGTFVSDYSKYLDECRAKDFVQWLMNT (lactam 16-20) [glucagon derivative peptide of SEQ ID NO: 28], the “In vitro activity (relative activity compared with SEQ ID NO: 1, %); cAMP EC50 in CHO cells expressing human GCG receptor” value is under 0.1%.
On to W[Aib]QGTFTSDYSKYLDECRAKDFVQWLMNT (lactam 16-20) [glucagon derivative peptide of SEQ ID NO: 26], for which the “In vitro activity (relative activity compared with SEQ ID NO: 1, %); cAMP EC50 in CHO cells expressing human GCG receptor” value worked out at 1%.
For W[Aib]QGTFTSDYSKCLDERRAKDFVQWLMNT (lactam 16-20) [glucagon derivative peptide of SEQ ID NO: 30] the value was 0.3%; for HSQGTFTSDYSKYLDSCEAQDFVQWLMNT [glucagon derivative peptide of SEQ ID NO: 5], 0.3%.
For Y[Aib]QGTFTSDYSKYLDCRRAQVFVQWLMRT [glucagon derivative peptide of SEQ ID NO: 16] the value was 4.2%.
For Y[Aib]QGTFTSDCSKYLDERRAKEFVQWLMNT (lactam 16-20) [glucagon derivative peptide of SEQ ID NO: 36] the value was 9.9%; for Y[Aib]QGTFCSDYSKYLDSRRAQDFVQWLMNT [glucagon derivative peptide of SEQ ID NO: 42], 37.9%.
For Y[Aib]QGTFTSDYSKYLDSCDAQDFVVWLINT [glucagon derivative peptide of SEQ ID NO: 9], the “In vitro activity (relative activity compared with SEQ ID NO: 1, %); cAMP EC50 in CHO cells expressing human GCG receptor” value was under 0.1%.
Next, Y[Aib]QGTFVSDCSKYLDERRAKDFVQWLMNT (lactam 16-20) [glucagon derivative peptide of SEQ ID NO: 39]: 3.7%; Y[Aib]QGTFTSDYSKCLDEKRAKEFVQWLMNT (lactam 16-20) [glucagon derivative peptide of SEQ ID NO: 24]: 58%.
Regarding Y[Aib]QGTFTSDYSKYLCEKRAKEFVQWLMNT (lactam 16-20) [glucagon derivative peptide of SEQ ID NO: 19], the “In vitro activity (relative activity compared with SEQ ID NO: 1, %); cAMP EC50 in CHO cells expressing human GCG receptor” value was found to be 12.1%.
In the case of Y[Aib]QGTFTSDYSKYCDERRAKEFVQWLMNT (lactam 16-20) [glucagon derivative peptide of SEQ ID NO: 35], the “In vitro activity (relative activity compared with SEQ ID NO: 1, %); cAMP EC50 in CHO cells expressing human GCG receptor” value amounted to 17.7%.
Next, YXQGTFTSDYSKYLDSRRAQDFVQWLMNTC (aminoisobutyric acid (Aib) at position 2 (printed X)) [glucagon derivative peptide of SEQ ID NO: 44]: 75.4%.
Turning to Y[Aib]QGTFTSDCSKYLDSRRAQDFVQWLMNT [glucagon derivative peptide of SEQ ID NO: 43], the “In vitro activity (relative activity compared with SEQ ID NO: 1, %); cAMP EC50 in CHO cells expressing human GCG receptor” value turned out to be 1.6%.
Take YSQGTFTSDYSKYLDSCEADDFVQWLMNT [glucagon derivative peptide of SEQ ID NO: 7]: the “In vitro activity (relative activity compared with SEQ ID NO: 1, %); cAMP EC50 in CHO cells expressing human GCG receptor” value is under 0.1%.
On to Y[Aib]QGTFTSDYSKYLDSRRACDFRLWLMNT [glucagon derivative peptide of SEQ ID NO: 18], for which the “In vitro activity (relative activity compared with SEQ ID NO: 1, %); cAMP EC50 in CHO cells expressing human GCG receptor” value was under 0.1%.
For HSQGTFTSDYSKYLDSCEADDFVQWLMNT [glucagon derivative peptide of SEQ ID NO: 6] the value was under 0.1%; for Y[Aib]QGTFTSDYSKCLDERRAKDFVQWLMNT (lactam 16-20) [glucagon derivative peptide of SEQ ID NO: 29], 61.3%; for Y[Aib]QGTFTSDYSKYLDCVRAQDFVQWLMRT [glucagon derivative peptide of SEQ ID NO: 17], 23.2%.
Next, Y[Aib]QGTFTSDYSKYLDECRAKEFVQWLMNT (lactam 16-20) [glucagon derivative peptide of SEQ ID NO: 20]: 300%.
